Results from patent US20070123452A1, “Method of selecting novel immunosuppressant” (Astellas Pharma Inc., priority 2002, published 2007).

Columns and labels:
[1] = molecular target: HDAC4-VP16 fusion protein (pACT-HDAC4) (human, UniProt P56524 1-1084); assay: mammalian two-hybrid (CheckMate), pG5-Luc luciferase in Jurkat cells
[2] = molecular target: T1, HDAC4 (H863L)-VP16 fusion protein (pACT-HDAC4 (H863L)) (human, UniProt P56524 1-1084); assay: as above
T1 construct: also called HDAC4 dominant negative variant (H863L)

B1: GAL4-N-CoR (RD3) fusion protein (pBIND-N-CoR(RD3)) (other, not shown: large carriers)
chain: EVLQPAPHQVITNLPEGVRLPTTRPTRPPPPLIPSSKTTVASEKPSFIMGGSISQGTPGTYLTSHNQASYTQETPKPSVGSISLGLPRQQESAKSATLPYIKQEEFSPRSQNSQPEGLLVRAQHEGVVRGTAGAIQEGSITRGTPTSKISVESIPSLRGSITQGTPALPQTGIPTEALVKGSISRMPIEDSSPEKGREEAASKGHVIYEGKSGHILSYDNIKNAREGTRSPRTAHEISLKRSYESVEGNIKQGMSMRESPVSAPLEGLICRALPRGSPHSDLKERTVLSGSIMQGTPRATTESFEDGLKYPKQIKRESPPIRAFEGAITKGKPYDGITTIKEMGRSIHEIPRQDILTQESRKTPEVVQSTRPIIEGSISQGTPIKFDNNSGQSAIKHNVKSLITGPSKLSRGMPPLEIVPENIKVVERGKYEDVKAGETVRSRHTSVVSSGPSVLRSTLHEAPKAQLSPGIYDDTSARRTPVSYQN
notes: The cloned fragment carried the variation L1014V (numbered on full-length N-CoR); also called pBND-N-CoR (RD3)
[1]
  binding result: binds
[2]
  binding result: no binding
